For assay [1], the target named is prokineticin receptor expressed endogenously on M2A7 melanoma cells (ATCC CRL-2500). The assay can be described thus: cell-based or functional assay.
Assay [2] deals with prokineticin receptor(s) of guinea pig ileal membrane / ileal smooth muscle (guinea pig). The assay can be described thus: cell-based or functional assay.

Results on two substances are retold here after EP1506971A1.

Take “recombinant human prokineticin 1 (refolded, 6xHis-tagged, unlabeled) (from UniProt P58294 20-105) (ligand)”: in assay [1], the EC50, calcium mobilization in M2A7 melanoma cells (FLIPR) is 12 nM. The substance further returned an ED50, contraction of guinea-pig ileum longitudinal muscle in assay [2] of 0.46 nM.

For “recombinant human prokineticin 2 (refolded, 6xHis-tagged, unlabeled) (from UniProt Q9HC23 28-129) (ligand)”, in assay [1], the EC50, calcium mobilization in M2A7 melanoma cells (FLIPR) stood at 21 nM. Besides, the ED50, contraction of guinea-pig ileum longitudinal muscle in assay [2] came out at 0.9 nM.
